Test results from publication PMC3573685.
Where two headings read alike, the source gives them in different places.

Key:
[1] = target: Aquifex aeolicus TatC (Aquifex aeolicus)
[2] = target: Aquifex aeolicus TatC (Aquifex aeolicus); assay: ITC

Tat signal peptide of the E. coli protein SufI, sequence (P26648 1-27 limits assumed): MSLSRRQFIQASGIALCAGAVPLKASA

Row | Substance | stoichiometry N [1] | Kd [2] [nM] | stoichiometry N [2]
1 | Aquifex aeolicus TatC (natural protein) | 2 | – | –
2 | Tat signal peptide of the E. coli protein SufI | – | 3000 | 1
